According to article PMC9135737:

Target: Roseovarius indicus B108 MmtN (the sample called MmtN in the DLS analysis) (Roseovarius indicus B108)
Experiment: dynamic light scattering; DynaPro NanoStar, 4 °C, 2 μl of 2.5 mg ml^-1 protein in 10 mM Tris-HCl, 100 mM NaCl, pH 8.0

In the case of “Roseovarius indicus B108 MmtN (the sample called MmtN in the DLS analysis) (enzyme)”, the stoichiometry N is reported as 3.
